Data: paper PMC3036719
Like-named read-outs stand apart in the source and are kept apart here.

Experiments:
human fibrinogen (human) [1] = molecular target: human fibrinogen (human) (UniProt P02671); experiment: bacterial cell adhesion ELISA; wells coated with 1 µg human fibrinogen or fragment D, blocked with 20 mg/mL BSA; 3×10^8 leptospires, 1 h at 30°C; adherent cells fixed with formaldehyde and detected with a rabbit antibody to L. biflexa; increase over wild-type L. biflexa
[2] = molecular target: fibrinogen fragment D (human); experiment: as above
fibrinogen fragment D (human), sequence (P02671 130-216, chain 1 of 3): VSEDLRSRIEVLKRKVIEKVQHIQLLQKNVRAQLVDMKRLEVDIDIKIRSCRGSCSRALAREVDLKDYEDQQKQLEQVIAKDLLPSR
fibrinogen fragment D (human), sequence (P02675 164-491, chain 2 of 3, further chain): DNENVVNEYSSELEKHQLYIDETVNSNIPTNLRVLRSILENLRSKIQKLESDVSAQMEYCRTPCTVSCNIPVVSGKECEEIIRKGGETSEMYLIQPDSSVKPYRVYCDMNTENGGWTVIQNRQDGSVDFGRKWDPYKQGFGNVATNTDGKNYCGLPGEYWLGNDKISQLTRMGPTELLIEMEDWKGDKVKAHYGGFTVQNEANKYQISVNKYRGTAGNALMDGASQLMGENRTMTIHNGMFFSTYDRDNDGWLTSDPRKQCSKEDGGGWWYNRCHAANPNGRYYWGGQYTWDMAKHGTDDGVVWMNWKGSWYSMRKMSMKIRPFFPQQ
fibrinogen fragment D (human), sequence (P02679 114-432, chain 3 of 3, further chain): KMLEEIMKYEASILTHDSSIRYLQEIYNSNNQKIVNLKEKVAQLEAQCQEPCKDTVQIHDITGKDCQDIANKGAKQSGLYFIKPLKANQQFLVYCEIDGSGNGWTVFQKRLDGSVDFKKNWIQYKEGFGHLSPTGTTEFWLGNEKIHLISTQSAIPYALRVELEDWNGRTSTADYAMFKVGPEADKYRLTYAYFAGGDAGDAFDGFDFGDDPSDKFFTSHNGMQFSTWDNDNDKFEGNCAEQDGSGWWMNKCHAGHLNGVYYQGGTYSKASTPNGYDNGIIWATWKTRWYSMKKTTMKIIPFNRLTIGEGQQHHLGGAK

human fibrinogen (human) [3] = molecular target: human fibrinogen (human) (UniProt P02671); experiment: ELISA; host protein (1 µg per well) immobilised in microtiter wells, blocked with 20 mg/mL BSA; recombinant LigB in 20 mg/mL BSA in PBS pH 7.2, 1 h at 37°C; bound LigB detected by its polyhistidine tag; apparent Kd from the LigB concentration at half-maximal binding
[4] = molecular target: human fibronectin from plasma (human); experiment: as above
human fibrinogen (human) [5] = molecular target: human fibrinogen (human) (UniProt P02671); experiment: as above; remark: listed apart in the source
human fibrinogen (human) [6] = molecular target: human fibrinogen (human) (UniProt P02671)
[7] = molecular target: human fibronectin from fibroblasts (human); experiment: ELISA; host protein (1 µg per well) immobilised in microtiter wells, blocked with 20 mg/mL BSA; recombinant LigB in 20 mg/mL BSA in PBS pH 7.2, 1 h at 37°C; bound LigB detected by its polyhistidine tag; apparent Kd from the LigB concentration at half-maximal binding
[8] = molecular target: human type III collagen (human) (UniProt P02461); experiment: as above
human type III collagen (human), sequence (P02461 154-1221): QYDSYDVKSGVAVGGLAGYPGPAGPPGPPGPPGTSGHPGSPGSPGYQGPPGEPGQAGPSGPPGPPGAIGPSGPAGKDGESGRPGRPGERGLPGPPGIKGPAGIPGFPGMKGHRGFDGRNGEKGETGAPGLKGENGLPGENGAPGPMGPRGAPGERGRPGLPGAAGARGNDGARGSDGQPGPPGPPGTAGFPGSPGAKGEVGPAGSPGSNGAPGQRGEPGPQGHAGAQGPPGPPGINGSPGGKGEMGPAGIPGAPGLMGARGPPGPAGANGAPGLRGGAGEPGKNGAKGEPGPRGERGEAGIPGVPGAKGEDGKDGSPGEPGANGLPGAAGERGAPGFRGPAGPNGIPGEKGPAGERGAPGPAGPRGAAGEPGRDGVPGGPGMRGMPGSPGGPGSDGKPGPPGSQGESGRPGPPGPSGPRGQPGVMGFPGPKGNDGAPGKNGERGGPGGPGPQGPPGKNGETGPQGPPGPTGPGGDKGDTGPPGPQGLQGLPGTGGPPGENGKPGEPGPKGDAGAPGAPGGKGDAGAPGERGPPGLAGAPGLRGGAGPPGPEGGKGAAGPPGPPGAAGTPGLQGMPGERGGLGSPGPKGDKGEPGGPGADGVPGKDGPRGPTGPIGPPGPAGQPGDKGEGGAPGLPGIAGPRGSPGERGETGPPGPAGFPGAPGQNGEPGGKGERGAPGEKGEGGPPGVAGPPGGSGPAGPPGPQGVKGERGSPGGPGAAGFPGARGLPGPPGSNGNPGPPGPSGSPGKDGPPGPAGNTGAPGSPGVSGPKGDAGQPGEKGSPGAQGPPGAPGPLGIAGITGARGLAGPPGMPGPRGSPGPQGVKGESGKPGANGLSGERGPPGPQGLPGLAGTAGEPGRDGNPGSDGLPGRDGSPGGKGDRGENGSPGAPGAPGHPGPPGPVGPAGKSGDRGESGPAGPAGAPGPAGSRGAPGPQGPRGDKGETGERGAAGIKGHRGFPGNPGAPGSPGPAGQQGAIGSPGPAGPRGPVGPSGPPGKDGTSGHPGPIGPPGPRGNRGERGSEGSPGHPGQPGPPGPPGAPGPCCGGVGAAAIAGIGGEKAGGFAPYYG

[9] = molecular target: human fibronectin from plasma (human); experiment: as above; remark: listed apart in the source
human fibrinogen (human) [10] = molecular target: human fibrinogen (human) (UniProt P02671); experiment: ELISA; data not shown; LigB proteins on immobilised fibronectin, its 70-kDa N-terminal fragment or fibrinogen
[11] = molecular target: human fibronectin from plasma (human); experiment: as above

human fibrinogen (human), sequence (P02671 20-866, chain 1 of 3): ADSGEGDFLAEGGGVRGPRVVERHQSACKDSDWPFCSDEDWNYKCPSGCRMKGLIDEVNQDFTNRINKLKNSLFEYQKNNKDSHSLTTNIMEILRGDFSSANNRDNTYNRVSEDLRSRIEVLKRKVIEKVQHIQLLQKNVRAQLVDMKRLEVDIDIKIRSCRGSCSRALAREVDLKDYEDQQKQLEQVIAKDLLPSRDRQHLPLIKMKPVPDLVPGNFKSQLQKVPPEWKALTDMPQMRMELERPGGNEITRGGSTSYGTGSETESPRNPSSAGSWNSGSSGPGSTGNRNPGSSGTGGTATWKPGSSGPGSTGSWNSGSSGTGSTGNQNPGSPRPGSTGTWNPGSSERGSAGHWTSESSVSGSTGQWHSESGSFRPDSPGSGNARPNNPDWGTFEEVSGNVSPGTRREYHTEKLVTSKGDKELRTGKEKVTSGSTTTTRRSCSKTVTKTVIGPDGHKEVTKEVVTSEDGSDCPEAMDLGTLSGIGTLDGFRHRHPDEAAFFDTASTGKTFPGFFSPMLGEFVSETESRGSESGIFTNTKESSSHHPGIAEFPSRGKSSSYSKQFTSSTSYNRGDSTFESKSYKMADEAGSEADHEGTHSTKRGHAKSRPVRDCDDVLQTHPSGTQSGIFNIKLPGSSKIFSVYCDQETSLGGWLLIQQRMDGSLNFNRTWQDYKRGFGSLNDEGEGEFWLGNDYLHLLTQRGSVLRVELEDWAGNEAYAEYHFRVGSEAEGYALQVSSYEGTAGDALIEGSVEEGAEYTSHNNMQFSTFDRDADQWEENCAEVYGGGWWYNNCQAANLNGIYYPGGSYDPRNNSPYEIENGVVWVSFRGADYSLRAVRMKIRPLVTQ
human fibrinogen (human), sequence (P02675 31-491, chain 2 of 3, further chain): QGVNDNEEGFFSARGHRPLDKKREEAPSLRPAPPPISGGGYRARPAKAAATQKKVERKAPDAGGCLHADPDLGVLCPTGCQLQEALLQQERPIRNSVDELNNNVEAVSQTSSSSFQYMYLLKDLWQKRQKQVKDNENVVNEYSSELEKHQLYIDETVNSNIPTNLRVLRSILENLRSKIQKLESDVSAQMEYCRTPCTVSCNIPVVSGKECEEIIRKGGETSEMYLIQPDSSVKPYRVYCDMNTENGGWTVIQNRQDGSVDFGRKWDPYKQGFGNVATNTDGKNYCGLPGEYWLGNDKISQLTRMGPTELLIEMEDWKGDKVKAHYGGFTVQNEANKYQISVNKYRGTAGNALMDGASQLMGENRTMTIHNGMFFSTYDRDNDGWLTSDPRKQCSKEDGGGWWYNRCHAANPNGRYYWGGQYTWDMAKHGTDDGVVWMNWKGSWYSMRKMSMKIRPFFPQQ
human fibrinogen (human), sequence (P02679 27-453, chain 3 of 3, further chain): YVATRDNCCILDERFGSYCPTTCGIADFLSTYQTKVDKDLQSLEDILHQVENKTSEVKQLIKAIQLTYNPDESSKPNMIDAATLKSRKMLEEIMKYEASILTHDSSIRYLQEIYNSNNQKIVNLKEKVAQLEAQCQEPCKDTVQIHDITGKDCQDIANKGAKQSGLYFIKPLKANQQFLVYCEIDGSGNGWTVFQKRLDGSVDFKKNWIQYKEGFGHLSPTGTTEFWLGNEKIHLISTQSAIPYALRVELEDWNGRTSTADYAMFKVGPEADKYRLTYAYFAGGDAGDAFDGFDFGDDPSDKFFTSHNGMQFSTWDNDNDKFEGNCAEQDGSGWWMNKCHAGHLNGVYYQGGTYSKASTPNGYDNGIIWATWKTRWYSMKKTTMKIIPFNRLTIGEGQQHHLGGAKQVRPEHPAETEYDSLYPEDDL

Row | Substance | Kd (human fibrinogen (human) [3]) | Kd [4] | further results
1 | LigA from L. interrogans expressed on L. biflexa (ligA transformant) (natural protein) |  |  | percent increase of adhesion over wild-type L. biflexa (human fibrinogen (human) [1]): 55%; percent increase of adhesion over wild-type L. biflexa (representative experiment) (human fibrinogen (human) [1]): 56%; percent increase of adhesion over wild-type L. biflexa [2]: 58%
2 | LigB7′-10 (domain or fragment) | 207 nM | 77 nM | 
3 | LigB7′-11 (domain or fragment) | 63 nM | 27 nM | 
4 | LigB7′-12 (domain or fragment) | 34 nM | 23 nM | 
5 | LigB8-12 (domain or fragment) |  | 26 nM | 
6 | LigB9-10 (domain or fragment) | 169 nM | 252 nM | 
7 | LigB9-11 (domain or fragment) | 27 nM | 31 nM | Kd (human fibrinogen (human) [5]): 28 nM; decrease of thrombin-catalysed fibrin formation from purified fibrinogen (3 µM fibrinogen preincubated with 5 µM LigB9-11; three determinations, 22 to 43%) (human fibrinogen (human) [6]): 29%; Kd [7]: 25 nM; Kd [8]: 30 nM; Kd [9]: 32 nM
8 | LigB9-11 with N-terminal H6 (cloned in pET-14b) (domain or fragment) |  |  | residual fibrinogen-binding activity relative to LigB9-11 (human fibrinogen (human) [10]): < 10%
9 | LigB9-11′ (domain or fragment) |  |  | percent decrease of fibrinogen-binding activity relative to LigB9-11 (human fibrinogen (human) [10]): 50%; percent decrease of fibronectin-binding activity relative to LigB9-11 [11]: 80%
10 | LigB9-12 (domain or fragment) | 37 nM | 22 nM | 
11 | LigB from L. interrogans expressed on L. biflexa (ligB transformant) (natural protein) |  |  | percent increase of adhesion over wild-type L. biflexa (human fibrinogen (human) [1]): 55%; percent increase of adhesion over wild-type L. biflexa (representative experiment) (human fibrinogen (human) [1]): 37%
